“And” between values parts separate entries of the source, which are not always exact repeats. Identical values can stand only once.
B1: Human recombinant TUBB3 (other)
chain: MREIVHIQAGQCGNQIGAKFWEVISDEHGIDPSGNYVGDSDLQLERISVYYNEASSHKYVPRAILVDLEPGTMDSVRSGAFGHLFRPDNFIFGQSGAGNNWAKGHYTEGAELVDSVLDVVRKECENCDCLQGFQLTHSLGGGTGSGMGTLLISKVREEYPDRIMNTFSVVPSPKVSDTVVEPYNATLSIHQLVENTDETYCIDNEALYDICFRTLKLATPTYGDLNHLVSATMSGVTTSLRFPGQLNADLRKLAVNMVPFPRLHFFMPGFAPLTARGSQQYRALTVPELTQQMFDAKNMMAACDPRHGRYLTVATVFRGRMSMKEVDEQMLAIQSKNSSYFVEWIPNNVKVAVCDIPPRGLKMSSTFIGNSTAIQELFKRISEQFTAMFRRKAFLHWYTGEGMDEMEFTEAESNMNDLVSEYQQYQDATAEEEGEMYEDDEEESEAQGPK
notes: Bought protein; immobilised by amine coupling in SPR, in solution in the dot blot; also called tubulin β-3; Tubulin β-3

Legend:
[1] = target: T1, assembled microtubules (containing ~25% of TUBB3) (porcine, UniProt F1S6M7 41-471); experiment: SPR Biacore T200, 60 sec injection of 10 uM over immobilised microtubules, reference-subtracted
T1 construct: also called assembled MTs; MTs

[2] = target: B1; experiment: SPR (Biacore T200), recombinant TUBB3 amine-coupled to a CM5 chip, peptide as analyte at 625 nM to 20 µM
[3] = target: T2, gp120IIIB (HIV, UniProt P04578 33-511); experiment: dot blot: 2 µg peptide spotted, 5 µg gp120IIIB in 20 mL, anti-gp120 antibody
T2 construct: Bought protein
Description: Dot blot analysis: CTTs or Helix-A and -B peptides (2 μg each) were spotted on a nitrocellulose membrane and allowed to dry. […] The membranes were washed and then incubated with a mouse anti-gp120 antibody (1:1000; Immunodiagnostics, Inc.) or mouse anti-TUBB3 antibody (1:5000; Covance, NJ) in TBST for 2 hours. Membranes were washed and incubated in goat anti-mouse HP-conjugated secondary antibody (1:20,000; Jackson ImmunoResearch Laboratories, Inc., PA). Visualization of the bands was then accomplished by the addition of PIERCE® SUPERSIGNAL™ West Pico-Stable Peroxidase Solution and Luminol/Enhancer Solution (Pierce Biotechnology, Inc., Rockford, Ill.).
Following incubation with a corresponding HRP-conjugated secondary antibody 1 hour at RT, the immunocomplexes were visualized with chemiluminescence.

[4] = target: T2, gp120IIIB; experiment: SPR Biacore T200, TUBB3 immobilised, 1:1 model; mean of two experiments
Description: (§1) After ligand capture, the surfaces were deactivated by injecting 1 M ethanolamine for 720 sec at 10 μL/min. HBS-P (10 mM HEPES, pH7.4, 150 mM NaCl, 0.05% P-20) with 2 mM MgCl₂ used as the running buffer. Flow cell 1 on each chip was left empty and used for reference surface. […] Kinetic studies were performed by injecting different concentrations of the analytes in triplicate. The chip surface was regenerated by with 10 mM glycine pH 1.5 injected for 30 sec at a flow rate of 100 μL/min. Each sample was injected for 60 sec (contact time) followed by a dissociation time of 300 sec at a flow rate of 100 μL/min. Data was analyzed with BIACORE® T200™ Evaluation Software (version 1) to determine the equilibrium dissociation constant (KD) from a 1:1 binding model.
(§2) Recombinant TUBB3, tubulin dimer, and assembled MTs from bovine brains were immobilized on a BIACORE® CM5 chip by amine coupling. […] The kinetics of interaction was analyzed using a BIACORE® T200™ instrument. BiaEvaluation software was used to calculate binding affinities based on 1:1 binding model.

[5] = target: T3, gp120MN (HIV, UniProt P05877 32-513); experiment: as above
T3 construct: Bought protein; only its gp120 part would apply; also called GP-MN
Description: as §1, §2

[6] = target: T2, gp120IIIB; experiment: SPR Biacore T200, TUBB3 amine-coupled to CM5, gp120 3.13-100 nM as analyte, 1:1 model; one of two experiments
[7] = target: T3, gp120MN; experiment: as above

Row | Binder | binding result [3] | further results
1 | RAKWNNTLKQIASK (Synthetic peptide from GenScript) [Helix-B peptide] | – | response (4-1) RU [1]: 0.2 RU; binding result [2]: no binding (tested: 20 µM)
2 | EGEGEEEGEE (Synthetic peptide from GenScript; also called α1A/1B detyrosinated isoform) [tubulin α1A/1B C-terminal tail (CTT) peptide, detyrosinated isoform] | no binding | –
3 | EDEDEGEEY (Synthetic peptide from GenScript; also called α4 tyrosinated isoform) [tubulin α4 C-terminal tail (CTT) peptide, tyrosinated isoform] | no binding | –
4 | EGEGEEEGQQ (Synthetic variant peptide from GenScript; also called α1A/1B more basic) [tubulin α1A/1B C-terminal tail (CTT) peptide, more basic variant EGEGEEEGQQ] | no binding | –
5 | EDEDEGE (Synthetic peptide from GenScript; also called α4 Δ2 isoform) [tubulin α4 C-terminal tail (CTT) peptide, Δ2 isoform] | no binding | –
6 | EGEGEEEGQQQQ (Synthetic variant peptide from GenScript; also called α1A/1B more basic) [tubulin α1A/1B C-terminal tail (CTT) peptide, more basic variant EGEGEEEGQQQQ] | no binding | –
7 | EEEEGEDEA (Synthetic peptide from GenScript) [tubulin β2A/2B C-terminal tail (CTT) peptide] | no binding | –
8 | B1 | – | Kd [4]: 7.5 nM; Kd [5]: 740 nM; Kd [6]: 7.91 nM and 7.05 nM; Kd [7]: 901 nM and 579 nM
9 | EGEGEEEGEEY (Synthetic peptide from GenScript; also called α1A/1B tyrosinated isoform) [tubulin α1A/1B C-terminal tail (CTT) peptide, tyrosinated isoform] | no binding | –
10 | EDEDEGEE (Synthetic peptide from GenScript; also called α4 detyrosinated isoform) [tubulin α4 C-terminal tail (CTT) peptide, detyrosinated isoform] | no binding | –
11 | EGEGEEEGQQQ (Synthetic variant peptide from GenScript; also called α1A/1B more basic) [tubulin α1A/1B C-terminal tail (CTT) peptide, more basic variant EGEGEEEGQQQ] | no binding | –

— patent US20150239933A1 (GEORGETOWN UNIVERSITY, published 2015)
